Source: patent US7851436

Target: integrins αVβ3 and αVβ5
Assay: inhibition of Ch-1 cell adhesion to coated PIIBNP by synthetic peptide (FIG. 3C)

IC50 | Binder
60 µM | GRADNP [synthetic GRADNP peptide]
10 µM | GRGDNP [synthetic GRGDNP peptide]
